{"source": "patent US20140178390A1", "about": "(published 2014)", "binders": {"B1": {"name": "Nanobody 07B11 with Tag-1 (VHH)", "VHH": "EVQLVESGGNLVQAGGSLGLSCAASVSISSIHIMGWYRQAPGKQRDLVATITSGGSTAYADSVKGRFTVSKDNAKNTVYLQMDSLKPEDTSVYYCAAEVRNGVFGKWNHYWGQGTQVTVSS", "notes": "periplasmic extract in the screening FACS"}, "B2": {"name": "Nanobody 07C03 with Tag-1 (VHH)", "VHH": "EVQLVESGGGLVQAGESLTLSCAASGRTLSAYIMGWFRQAPGKEREFVAGIWSGGYTHLADSAKGRFSISRDNAKNTVYLQMNGLKPEDTAVYYCAAGLRGRQYSNWGQGTQVTVSS", "notes": "as for B1"}, "B3": {"name": "Nanobody 01C10 with Tag-1 (VHH)", "VHH": "EVQLVESGGGLVQTGASLRLSCAASGRTFSNYAMGWFRQAPGKERERVAAITPRAFTTYYADSVKGRFTISRDNAKNTAYLQMVSLKPEDTAVYYCAAQLVGSGSNLGRQESYAYWGQGTQVTVSS"}, "B4": {"name": "Nanobody 08A05 with Tag-1 (VHH)", "VHH": "EVQLVESGGGLVQAGDSLRLSCAASGLTFSNYDMGWFRQAPGKEREFVGASWWSGGAPYYSDSVKGRFTISRDNAKNTVYLQANSLRPEDTAVYYCAAKRLRSFASGGSYDYWGQGTQVTVSS", "notes": "as for B1"}, "B5": {"name": "Nanobody 08A10 with Tag-1 (VHH)", "VHH": "EVQLVESGGGLVQAGGSLRLSCAASGSIFSIAAMGWYRQATGKQRELVATITDGGTTTYADSVKGRVTISRDRSANTVYLAMNNLKPDDTAVYYCYAYLRYTSRVPGDNYWGQGTQVTVSS", "notes": "as for B1"}, "B6": {"name": "Nanobody 08A05 with Tag-2 (VHH)", "VHH": "B4 VHH", "notes": "Purified from E. coli periplasm"}, "B7": {"name": "Nanobody 07C03 with Tag-2 (VHH)", "VHH": "B2 VHH", "notes": "as for B6"}, "B8": {"name": "Nanobody 01C10 with Tag-2 (VHH)", "VHH": "B3 VHH", "notes": "as for B6"}, "B9": {"name": "Nanobody 08A10 with Tag-2 (VHH)", "VHH": "B5 VHH", "notes": "as for B6"}, "B10": {"name": "Nanobody 07B11 with Tag-2 (VHH)", "VHH": "B1 VHH", "notes": "as for B6"}, "B11": {"name": "Mab 11G8 (R&D Systems) (antibody, V domains shown)", "VH": "EVKLVESGGDLVQPGGSLKLSCATSGFTFSDYYMFWVRQTPEKRLEWVAYITNGGDRSYYSDTVTGRFIISRDNAKNTLYLQMSRLKSEDTAMYYCARQGNWAAWFVYWGQGTLVTVSA", "VL": "DVLMTQTPLSLPVSLGDQASISCRSSHYIVHSDGNTYLEWYLQKPGQSPKLLIYKVSNRFSGVPDRFSGSGSGTDFTLKISRVEAEDLGIYYCFQGSHVPLTFGAGTKLELKR"}}, "data": [{"biological_target": "T1, Human CXCR7 (human, UniProt P25106 1-362)", "T1 construct": "see assay field; also called hCXCR7", "T1 sequence (P25106 whole entry)": "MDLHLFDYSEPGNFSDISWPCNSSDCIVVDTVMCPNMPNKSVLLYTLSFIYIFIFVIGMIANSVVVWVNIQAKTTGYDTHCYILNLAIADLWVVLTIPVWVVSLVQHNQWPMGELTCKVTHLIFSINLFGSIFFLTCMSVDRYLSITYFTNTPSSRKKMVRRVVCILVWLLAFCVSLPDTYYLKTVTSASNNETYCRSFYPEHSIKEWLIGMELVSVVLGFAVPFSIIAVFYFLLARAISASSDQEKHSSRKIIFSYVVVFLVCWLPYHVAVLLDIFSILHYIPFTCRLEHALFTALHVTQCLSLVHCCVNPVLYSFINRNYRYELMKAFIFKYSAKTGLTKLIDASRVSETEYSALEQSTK", "assay": "phage ELISA, hCXCR7 VLPs over non-transfected control VLPs", "procedure": "(§1) From all round 2 selection outputs clones were screened in phage ELISA on 2 units of immobilized CXCR7VLPs applying 10-fold dilutions of phage supernatant. […] The reaction was stopped with H₂SO₄ and the absorbance was measured at 450 nm using Sunrise TECAN spectrophotometer (TECAN). Nanobodies, showing a minimally 2-fold increased ELISA signal on hCXCR7VLPs over non-transfected control VLPs, were considered to be CXCR7 specific. CXCR7 specific Nanobodies were sequenced and redundant Nanobodies (identical AA sequence) were removed.", "units": {"Fold CXCR7-LP/Null-LP": "fold"}, "values": [{"binder": "B1", "Fold CXCR7-LP/Null-LP": 4.1}, {"binder": "B2", "Fold CXCR7-LP/Null-LP": 4.4}, {"binder": "B3", "Fold CXCR7-LP/Null-LP": 4.2}, {"binder": "B4", "Fold CXCR7-LP/Null-LP": 2.4}, {"binder": "B5", "Fold CXCR7-LP/Null-LP": 17.3}]}, {"biological_target": "T2, Mouse CXCR7 (mouse, UniProt P56485 1-362)", "T2 construct": "On transfected HEK293 cells; also called mCXCR7", "T2 sequence (P56485 whole entry)": "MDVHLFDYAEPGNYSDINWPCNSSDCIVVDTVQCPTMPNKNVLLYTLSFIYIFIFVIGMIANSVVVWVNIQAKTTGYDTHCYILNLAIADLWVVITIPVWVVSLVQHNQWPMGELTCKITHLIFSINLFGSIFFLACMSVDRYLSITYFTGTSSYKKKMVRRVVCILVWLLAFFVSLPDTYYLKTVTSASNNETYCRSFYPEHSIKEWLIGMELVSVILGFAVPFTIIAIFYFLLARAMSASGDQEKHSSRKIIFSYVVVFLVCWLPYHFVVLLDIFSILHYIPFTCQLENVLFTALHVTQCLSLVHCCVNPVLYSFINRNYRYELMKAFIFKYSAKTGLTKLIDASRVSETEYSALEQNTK", "assay": "FACS on HEK293 cells transfected with pcDNA3.1-mCXCR7, 800 nM Nanobody", "text": "(§2) HEK293 cells transfected respectively with pcDNA3.1-hCXCR7 and pcDNA3.1-mCXCR7 were used to test cross-reactive binding of Nanobodies to mouse CXCR7 in FACS analysis. […] Nanobody binding was detected using mouse anti-myc (Serotec) and anti-mouse IgG-PE (Jackson Immunoresearch) and Mab binding by goat anti-mouse IgG-PE (Jackson Immunoresearch).", "values": [{"binder": "B6", "binding result": "binds"}, {"binder": "B7", "binding result": "binds"}, {"binder": "B8", "binding result": "binds"}]}, {"biological_target": "T1, Human CXCR7", "assay": "[125I]-CXCL12 displacement on NIH3T3-hCXCR7 cells, relative to cold SDF-1", "procedure": "(§3) After incubation, cells were washed twice, lysed with RIPA buffer and the ¹²⁵I signal was measured.", "units": {"Average SDF-1 displacement (%)": "%"}, "values": [{"binder": "B6", "Average SDF-1 displacement (%)": 77}, {"binder": "B9", "Average SDF-1 displacement (%)": 75}, {"binder": "B10", "Average SDF-1 displacement (%)": 75}, {"binder": "B7", "Average SDF-1 displacement (%)": 78}, {"binder": "B8", "Average SDF-1 displacement (%)": 31}, {"binder": "B11", "Average SDF-1 displacement (%)": 24}]}, {"biological_target": "T3, Cynomolgus CXCR7 (cynomolgus, UniProt P25106 1-362 (human entry))", "T3 construct": "On transfected HEK293 cells; also called cCXCR7; cyno CXCR7", "T3 chain": "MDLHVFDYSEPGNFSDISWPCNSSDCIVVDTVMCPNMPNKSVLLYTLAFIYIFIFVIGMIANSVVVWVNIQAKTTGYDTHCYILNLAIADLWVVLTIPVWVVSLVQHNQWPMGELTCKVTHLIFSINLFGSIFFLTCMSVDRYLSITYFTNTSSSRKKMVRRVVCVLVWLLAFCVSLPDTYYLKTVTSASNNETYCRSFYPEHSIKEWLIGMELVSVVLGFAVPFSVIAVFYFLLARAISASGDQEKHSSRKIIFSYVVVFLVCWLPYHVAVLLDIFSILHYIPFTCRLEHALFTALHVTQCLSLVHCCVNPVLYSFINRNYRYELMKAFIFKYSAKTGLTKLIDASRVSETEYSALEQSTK", "assay": "FACS on HEK293 cells expressing cynomolgus CXCR7, 800 nM Nanobody", "procedure": "as §2\nCross-reactive binding to cynomolgus CXCR7 was assessed in the same way.", "values": [{"binder": "B6", "binding result": "binds"}, {"binder": "B9", "binding result": "binds"}, {"binder": "B10", "binding result": "binds"}, {"binder": "B7", "binding result": "binds"}, {"binder": "B8", "binding result": "binds"}]}, {"biological_target": "T1, Human CXCR7", "assay": "competition FACS with 4 nM biotinylated SDF-1 on HEK-hCXCR7 cells", "units": {"competition relative to unlabelled SDF-1 (%)": "%"}, "values": [{"binder": "B7", "competition relative to unlabelled SDF-1 (%)": "> 95"}]}, {"biological_target": "T1, Human CXCR7", "assay": "[125I]-CXCL12 displacement on NIH3T3-hCXCR7 cells", "procedure": "as §3", "units": {"Ki": "nM"}, "values": [{"binder": "B6", "Ki": 13.6}, {"binder": "B9", "Ki": 12.1}, {"binder": "B10", "Ki": 96.1}, {"binder": "B7", "Ki": 12.2}, {"binder": "B8", "Ki": 20.7}, {"binder": "B11", "Ki": 4.4}]}, {"biological_target": "T1, Human CXCR7", "assay": "FACS, Hek293 hCXCR7 over Hek293 wt cells", "procedure": "(§4) Clones representing distinct Nanobody B-cell lineages were tested as periplasmic extracts for their binding to cell surface exposed CXCR7. In this assay, 5-fold dilutions of periplasmic extract were incubated with Hek293 hCXCR7 and Hek293 wt cells. Binding of the Nanobodies was detected using mouse anti-myc (Serotec), followed by anti-mouse IgG-PE (Jackson Immununoresearch).", "units": {"Fold Hek CXCR7/CXCR4": "fold"}, "values": [{"binder": "B1", "Fold Hek CXCR7/CXCR4": 110}, {"binder": "B2", "Fold Hek CXCR7/CXCR4": 73.2}, {"binder": "B4", "Fold Hek CXCR7/CXCR4": 60.1}, {"binder": "B5", "Fold Hek CXCR7/CXCR4": 85.1}]}, {"biological_target": "T1, Human CXCR7", "assay": "FACS binding, purified protein on stable HEK-CXCR7 cells", "units": {"Plateau [mcf]": "mcf"}, "values": [{"binder": "B6", "Plateau [mcf]": 28500}, {"binder": "B9", "Plateau [mcf]": 34900}, {"binder": "B10", "Plateau [mcf]": 24900}, {"binder": "B7", "Plateau [mcf]": 33100}]}, {"biological_target": "T1, Human CXCR7", "assay": "FACS, periplasmic extract on Hek293 hCXCR7 cells", "procedure": "as §4", "units": {"Hek-CXCR7 [MCF]": "MCF"}, "values": [{"binder": "B1", "Hek-CXCR7 [MCF]": 42900}, {"binder": "B2", "Hek-CXCR7 [MCF]": 23400}, {"binder": "B4", "Hek-CXCR7 [MCF]": 18600}, {"binder": "B5", "Hek-CXCR7 [MCF]": 27400}]}, {"biological_target": "T2, Mouse CXCR7", "assay": "FACS on HEK293 cells transfected with pcDNA3.1-mCXCR7", "text": "as §2", "values": [{"binder": "B9", "binding result": "no binding (tested: 800 nM)"}, {"binder": "B10", "binding result": "no binding (tested: 800 nM)"}]}, {"biological_target": "T1, Human CXCR7", "assay": "phage ELISA on immobilized hCXCR7 VLPs, OD 450 nm", "procedure": "as §1", "units": {"CXCR7-LP 2U/well [OD]": "OD"}, "values": [{"binder": "B1", "CXCR7-LP 2U/well [OD]": 0.041}, {"binder": "B2", "CXCR7-LP 2U/well [OD]": 0.053}, {"binder": "B3", "CXCR7-LP 2U/well [OD]": 0.145}, {"binder": "B4", "CXCR7-LP 2U/well [OD]": 0.019}, {"binder": "B5", "CXCR7-LP 2U/well [OD]": 0.104}]}]}
